Assay results reported in article PMC12727526, “Carbon-monoxide-driven bioethanol production operates through a tungsten-dependent catalyst” (Nature Chemical Biology, 2025).

Experiments:
CaAFOR (AOR1) = target: T1, CaAFOR (AOR1) (Clostridium autoethanogenum, UniProt A0ABM5NPY3); details: pH 5.5 or 6.5, 37 °C; CO-driven, ferredoxin, CODH/ACS, S. cerevisiae ADH, 0.2 mM NADH; total sodium acetate; apparent
T1 construct: gene CAETHG_0092
T1 sequence (A0ABM5NPY3 1-607): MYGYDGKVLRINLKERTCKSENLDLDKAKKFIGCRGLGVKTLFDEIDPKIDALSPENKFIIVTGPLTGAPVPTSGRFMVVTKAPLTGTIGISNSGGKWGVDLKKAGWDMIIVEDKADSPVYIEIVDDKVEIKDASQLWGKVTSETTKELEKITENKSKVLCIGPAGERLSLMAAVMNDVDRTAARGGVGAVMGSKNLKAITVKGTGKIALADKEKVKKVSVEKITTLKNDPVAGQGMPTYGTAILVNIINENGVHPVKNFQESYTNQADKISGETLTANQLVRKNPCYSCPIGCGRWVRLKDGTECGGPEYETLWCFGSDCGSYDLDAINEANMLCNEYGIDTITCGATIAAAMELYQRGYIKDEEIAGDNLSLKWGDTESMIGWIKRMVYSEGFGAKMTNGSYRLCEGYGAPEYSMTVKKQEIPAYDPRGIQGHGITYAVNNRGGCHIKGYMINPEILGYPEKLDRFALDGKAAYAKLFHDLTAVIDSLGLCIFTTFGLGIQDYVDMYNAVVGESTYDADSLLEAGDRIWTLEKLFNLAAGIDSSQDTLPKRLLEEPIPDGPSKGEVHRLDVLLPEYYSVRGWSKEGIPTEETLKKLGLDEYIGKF

purified protein [1] = substrate: CC(=O)O; assay: purified protein; details: pH 5.5, 37 °C, CO-driven, ferredoxin, CODH/ACS, S. cerevisiae ADH, 0.2 mM NADH, concentration of protonated acid calculated from total acetate with pKa 4.76, apparent, estimated
purified protein [2] = substrate: CCC=O; assay: purified protein; format: biochemical, Clostridium autoethanogenum; details: pH 8.0 (50 mM Tris-HCl), 37 °C, 5 mM methyl viologen, anaerobic, enzyme reactivated by preincubation with ferredoxin, apparent
purified protein [3] = substrate: CCCC=O; assay: purified protein; format: biochemical, Clostridium autoethanogenum; details: pH 8.0 (50 mM Tris-HCl), 37 °C, 5 mM methyl viologen, anaerobic, enzyme reactivated by preincubation with ferredoxin, apparent
purified protein [4] = substrate: CC=O; assay: purified protein; format: biochemical, Clostridium autoethanogenum; details: pH 8.0 (50 mM Tris-HCl), 37 °C, 5 mM methyl viologen, anaerobic, enzyme reactivated by preincubation with ferredoxin, apparent

For `CC(=O)O` [acetate], the “kM^app” value (CaAFOR (AOR1)) was “the high kM^app of CaAFOR for acetate”.

B1: CaAFOR (AOR1) (Clostridium autoethanogenum DSM 10061) (protein)
chain: T1 sequence (A0ABM5NPY3 1-607)
notes: native anaerobic purification from CO-grown cells; full length, no tag; monomer, expected mass 66,335 Da; holds [4Fe-4S] and tungstopterin
B1 showed a Km (purified protein [1]) of 1630 µM, a Km (purified protein [2]) of 165.51 ± 50.50 µM and a kcat (purified protein [2]) of 10.35 ± 1.06 s⁻¹. The Km (purified protein [3]) was 53.47 ± 19.45 µM, the kcat (purified protein [3]) was 4.27 ± 0.48 s⁻¹ and the Km (purified protein [4]) was 54.40 ± 12.55 µM. For the same molecule, the kcat (purified protein [4]) was 4.42 ± 0.31 s⁻¹.
